The values that follow come from the DeepSol protein solubility set.

The nature of the data set: soluble on expression in E. coli; label from the status in PepcDB or PDB records.
As to “MSLKKVTLLVLDGFGVGAMADCEKVKPEDVNANTYKHLREAVDIHIPTLYQLGLGNIVDHLDTARAAYGRCDLAHHGADTFMGHQELMGSKPGVPQKRLMSEVGATIKKNLEKHGYDVRDPVEGAPVLLVNEAVVVGDNLESEVGNIINVVGDFRKLSFEQTIEVGKVVRSSVDTSRVIVYGNKEKTSIDLILSTIKERHPGQWGVDSPKANVYGEGYQVLHLGYGVDYEKQFAHLAEKQRLPVYRIGKTADVIQASGYHNPVVSTRKVLEVYQHEYSKSERDSVFLVNVQETDLAGHKEDCLWYKEVIEEVDRFLASFIDELDEEDLLIITADHGNDPTIGHSNHTREQTPVIIVGPQVRPISIGTRQTMADLAATMADYMGVAPPQYGTSFLHQILREGHHHHHH”, the “soluble on expression in E. coli” value is “soluble”.
“MSLKKYMGIIVDAISRRQFKGEITVENGKIIRVEEKEHDNEQYILPGLVDAHVHIESSMTVPSVFARMAVAKGTVAVVSDPHEIANVMGEEGIEFMLEDSKKSPLKVYFGVPSCVPATPFESSGAVLDINAVDRLLAKDDLHYLSEMMNFPGVILEFPDVMAKLESARKHGKVIDGHAPGLRGADLQKYIGAGISTDHECFEYEEAREKIELGMKILIREGSSARNFETLYPLIDEYPDHVMLCTDDSHPDTLIYEGHIDKLIRRGQEKGLDIYNLIRTAVFNPVEHYGLNVGLLREGDPADFIIVDNLKSFNILSTFIDGECVYENGKVLFPLEKVPAKNVFNRNKISIDDVKLVPPAGAIQEQTTEKGIKKIRVIVANDGELVTGQELIVPKIENGNLVSDPERDILKMVVLSRYSDDPVRIGFIKNIGLEKGAIASSIAHDSHNIIAVGATDEDIVETVNRLIKNKGGIAVGTAENLLDLPLEVAGLMSTLEGEEVASRYHLLNEEARKLGTSLESPFMTLAFMSLLVIPELKLGDKGLFDVTKFEFVDLFADEGHHHHHH”: the “soluble on expression in E. coli” value is “soluble”.
As to “MSLKLEIIAIGGYEEVGRNMTAVNVDGEIIILDMGIRLDRVLIHEDTDISKLHSLELIEKGIIPNDTVMKNIEGEVKAIVLSHGHLDHIGAVPKLAHRYNAPIIGTPYTIELVKREILSEKKFDVRNPLIVLNAGESIDLTPNITLEFIRITHSIPDSVLPVLHTPYGSIVYGNDFKFDNFPVVGERPDYRAIKKVGKNGVLCFISETTRINHEGKTPPEIIASGLLKNDLLAADNDKHGIIVTTFSSHIARIKSITDIAEKMGRTPVLLGRSMMRFCGIAQDIGLVKFPEDLRIYGDPSSIEMALKNIVKEGKEKYLIIATGHQGEEGAVLSRMATNKTPYKFEKYDCVVFSADPIPNPMNAAQRYMLESRLKLLGVRIFKGAHVSGHAAKEDHRDMLRWLNPEHIIPSHGDFNLTAEYTKLAEEEGYRLGEDVHLLRNGQCLSFEREGHHHHHH”, the “soluble on expression in E. coli” value is given as “soluble”.
Consider “MSLKLLAIAPYEGLRQLFLRVAEEEGLSIKAEVGNLDEGVRLAKKAADESFDVIISRGGTATLIQQHLSIPVVEIEISGYDLLKNLLFLKEYPDKKAIVGFPQITNGVQLINELLDVSFSTVTIHSEGEAIHALKELKAQGFESVLGDVITVNEAERLGMNGFLLSSGEESVRKAFNQAKRVVKALGRDRLNYELPLSYLHEQERGLVLLDQNNDVCFVNEFAKKFQLMEFINDHSFMRQLRTPRETGAFSWSDGHSVWYIRYKAIGNQGLAIEFAQLNERVLNDHPKEGHHHHHH”, for which the “soluble on expression in E. coli” value was “soluble”.
For the sequence “MSLKPFGLFAICVAFAGCGDTSWWSKNDDPELKSEQIRKLIPSRVHDRQSWANDINDIMEKLKIPKTKDNVCSVVAIVDQESNFVANPVVAGLGEKAVKEVSTRLNEKFEEKLGTTIGGQVAGYFEDVLKNQPTPDDNYMSQMRRVRTEKDLDVLYRQIFDYMASHYHVSALTGAAKLVGQDIAEKMNPITTLGSMQVNIVYAKENKRVKLQSVNNLRDDLYTQYGGLYYGIHRLMLYQTSYDKPIYRFADYNSGMYSSRNAALQSMLNKLGDEQLTEDGDLLLYNKDGSIQSTRSSSEKALIKIFTLNNVLLTPNQIRTDLKQEKSQSFEQTPTYIAITKLYQKQTGKEAPYAMMPQVIISGPKLSRDYNTNWYASRVNGRYQTCMQRAKRIKEGHHHHHH”, the “soluble on expression in E. coli” value is “soluble”.
Regarding “MSLKRDELKLDYQRHQFYEYFNSIFNYDILDASISENIYLLRKTTDKLFYIEFENQLFETVMFLSMKTLVLDINSFSKEIGNKSEAYEQYIQQIKEENGINNFFDRYPYLLKQINREVRLIEESYSLLFDRFLKDLSELRSCFNITEPLSNVEFSLGDSHSQKQTVVKIEFKGKSIYYKPKSYDSYNILLELISLLKSNNIPSFSLPESLIKADYCWQLGVDYINSNNDEVKRIYFKYGVLAAFSEIFSITDLHMENVIVSGGDLYLIDVETFFQRKLNVQTNNFEGITVDTYQRIYETSLSNGLFPVQFEKNSAPNISGISGKGGKRKKGKYELINKNRGDMKLVKTDYFQEDSYNIPTLNEKMVEPLDYANEVIAGFRECYTFLMTQRAKVKKILYGFPKLRTRAIFRNTSDYGKFLQASTNPKYLFSEKKRENLFSILYESKHIEQFIVDSEIKDLMNGDIPYFSMDPNGNVYNSLGTVIGNLGKTTSLFDNIATLNDERMKFTCELIGIVLKKPIKHWERKDGKSYYFPSISSKQSFNEEILRQREGHHHHHH”, the “soluble on expression in E. coli” value is “soluble”.
For “MSLKRLIMATMVTAILASSTVWAADNAPVAAQQQTQQVQQTQKTAAAAERISEQGLYAMRDVQVARLALFHGDPEKAKELTNEASALLSDDSTEWAKFAKPGKKTNLNDDQYIVINASVGISESYVATPEKEAAIKIANEKMAKGDKKGAMEELRLAGVGVMENQYLMPLKQTRNALADAQKLLDKKQYYEANLALKGAEDGIIVDSEALFVNEGHHHHHH”, the “soluble on expression in E. coli” value is “soluble”.
The result for “MSLKRMVNVLFAGVLAMTVLSCGEEKKGYTLNGEISDVKDGMVYLKKYQDKSFIAVDSAVITDGTFKFEGVCTEPLAYGLTTFRDSKRPLVFFLDNEKMQLKMNESEKILTVTGSAINDLYAQNAPLTRQDGYSIDSLVAVHPASAVTPYFIVKDFAYKLNLEEMKALRAKLDASLDETMYVSQIDGFIKRMKDIQVGAVAPDFTLPDVDGNPVTLSGLRGKYVLIDFWASWCPDCRKENPNIVAAWNKYKDKNFTILGVSLDRKKEPWLAAIEKDQLAWTHVSDLKDWKSDAAVQYAIRWIPMNFLLDPNGVILAVGLEGEALQQKLDEVLKEGHHHHHH” reads “not soluble”; that for “MSLKRVSVIICMFLYFVLTDKAHAQRCLPGTKGLRITAGMTDGFHTADKRNELGYHFGMGMDRYVNGCHKWVFSGEYLQKYYPYKDIRVPVSQFTAEGGYYYNFLSDANKVFLCYAGGSVLAGYETVNWGTGMLFDGSRLCVGDAFVYGGAVSLEIETYLANQVVLLFHARERCLWGNDSGHFHFQFGVGLKIILNEGHHHHHH”, “not soluble”; that for “MSLKSIAQEHDCLLIDLDGTVFCGRQPTGGAVQSLSQVRSRKLFVTNNASRSADEVAAHLCELGFTATGEDVVTSAQSAAHLLAGQLAPGARVLIVGTEALANEVAAVGLRPVRRFEDRPDAVVQGLSMTTGWSDLAEAALAIRAGALWVAANVDPTLPTERGLLPGNGSMVAALRTATGMDPRVAGKPAPALMTEAVARGDFRAALVVGDRLDTDIEGANAAGLPSLMVLTGVNSAWDAVYAEPVRRPTYIGHDLRSLHQDSKLLAVAPQPGWQIDVGGGAVTVCANGDVDDLEFIDDGLSIVRAVASAVWEARAADLHQRPLRIEAGDERARAALQRWSLMRSDHPVTSVGTQEGHHHHHH”, “not soluble”.
For the sequence “MSLKSVIIGTAGHIDHGKTSLIKALNGFEGDSLKEEQERQITINLSFSNLKLKDKNISFIDVPGHKDLVKTMVSGAFGFSVCLFVVDINEGLKEQSLEHLEILKILDIKNIILVLSKCDLCENIEQKSVEILEELKNLDYPILKVFHTSIKNNQGIEELKNYLYTIENKENDEELIFHYYIDRVFSLKGIGTVVTGSLNEGSITLNEKIICLDTQKELIVKNIQNHDTNLEQIKACNRVALSLNCDYKELKKGYLLSKKGYFKAFKECDALVKAKNLQNSKMIFCVGSRQIECKINILKKLENDEFFVHFSFDKNVFLSFDEAFILLQNNRVIGGGKVLNPLSEPLKKEQKNKFLMFLKNKDFKAAFSFLKDAHKYGFGLLSSYQRFKLSHQKALKLAKELNQVFVDEKNLNVYHLQSLEEIKNFIKFILEKNPYAMLSAHSLALRITWASENFCELGLKEMSNLLDFQNGIYFKKGIDFEKLQEKNNNQMYEILKKQGIKPEAPYNLYDFLELDREGHHHHHH”, the “soluble on expression in E. coli” value was “soluble”.
As to “MSLKTITFFKRVLASAALVSVCGFACATNNGKQFIHNDTMEGGKLVCREIYAMNDAASGILNPVKMYKYSYDTDQQKTVKSTYAWNIFKNTWETESRTVISRYETETSVEYSVWNKEKGSFDLSKKYIYITDNNNQLIAQYAYKMNSRTNQWILEKDALTPIYENIYATTREGHHHHHH”, the “soluble on expression in E. coli” value was “soluble”.
Consider “MSLKTSHLKEVPETLAMRESLRDRCAQVAAKLDRSHPMTKDEMEQISRRMLEEADLPESYLGWVMVMISSEFWADALASVPPERRLFLLPHCLKHAEGCPAEYDQFGMNCKECGACSIADFRSIAEDMGYRVLVAEGSPVVMKIIVGGYVDAVVGVACLNVLEKAIDKVLLAGIPCMAVPLLSSDCRNTKVDEPWVEQMIRTPYKPAAAKTKSYVHLMRAAGLLFEDTLFERLAEGHHHHHH”, for which the “soluble on expression in E. coli” value is “not soluble”.
“MSLKVGFDNQKYLKMQSEHIRERISKFDNKLYLEFGGKLFDDYHASRVLPGFEPDSKLKMLLELKDQAEIVIVISAIDIEKSKVRGDLGITYDSDVLRLIDAFQSKGLYVGSVTITQYSGQSSADLFKSKLEALGVKVYLHYIIPGYPNNISLILSEDGYGKNEFIQTTRPLVVITAPGPGSGKMATCLSQLYHEHKRGVRAGYAKFETFPIWNLSLKHPVNVAYEAATADLNDVNMIDPCHLEAYGVTAVNYNRDVEIFPVLKAIFLRIDEHCPYKSPTDMGVNMVGNCIIDDQACRDASKQEILRRYYQTLCNVINGTSDGDEVYKLELLLNQVSVSAEDRPVIKAANDLADLNKSPAVAMQLADESIITGKTSELLGASAAVLLNALKALAGIPHETHVISPLAIGPIQQLKTQYLGSSNPRLHTDEVLIALSISAKEDENARKAMEQLPHLKGCEVHTSVILSEVDRKVFHKLGVHLTSEPTYENKKLFHEGHHHHHH”: the “soluble on expression in E. coli” value is on record as “soluble”.
The result for “MSLKVWGRGSSFNVQKVLWLVGELGLSHRHIPAGGDHGGLDEPSFLAMNPHGRVPVIDDGGVMVWESHAILRYLAARYGGSEWWPASPVDRAQADGWMDWAQTALQRDFLTGVFWGWYRTPEPERDNDAIRTALAACAKHFLLLDQILANRPFLGGDQPGLADIPCGTHLFRYYALEIDRPRTPNVEAWYARLQARPAYRKAVMIPFDEMKGRLAYEGHHHHHH” reads “soluble”.
For “MSLKWAHPIPFPETGCVLVATEKLDGYRTFARTVVLLLRAGTRHPQEGPFGVVINRPLHKNIKHMKSTKTELATTFSECSLYFGGPLEASMFLLKTGDKTKIPGFEEVMPGLNFGTRNSLDEAAVLVKKGVLKPQEFRFFVGYAGWQLDQLREEIESDYWHVAACSSDLICGASSENLWEEILQLMGGQYSELSRKPKLDIEGHHHHHH”, the “soluble on expression in E. coli” value is “soluble”.
For “MSLKYEKIAFFRFFGRLNDFFRNSERIKTHRFTGFQTVKDRIEALGVPHVEVSLITLNGKPVGFDHMVEDGELFFVYPEFQNIEIPEDWLVTPRYIGEPRFVLDIHLGKLARLLRMLGFEAVFGEESDEKLCWMAVKKKAILLSRDTGLLKRKELVFGYYVRNTDPKEQLVEVVERYDLKKWMKPFTRCIECGVELEEVPKEAVKNRVPPKVYGFFNEFARCPVCGRIYWKGSHYDHMVEFIKSNINKGEGHHHHHH”, the “soluble on expression in E. coli” value is “soluble”.
